{"source": "paper PMC8167299", "about": "“Cardio- and reno-protective effects of dipeptidyl peptidase III in diabetic mice” (The Journal of Biological Chemistry, 2021)", "molecules": {"B1": {"name": "dipeptidyl peptidase III (protein, UniProt Q9NY33 2-737, looked up)", "Dipeptidyl peptidase 3": "ADTQYILPNDIGVSSLDCREAFRLLSPTERLYAYHLSRAAWYGGLAVLLQTSPEAPYIYALLSRLFRAQDPDQLRQHALAEGLTEEEYQAFLVYAAGVYSNMGNYKSFGDTKFVPNLPKEKLERVILGSEAAQQHPEEVRGLWQTCGELMFSLEPRLRHLGLGKEGITTYFSGNCTMEDAKLAQDFLDSQNLSAYNTRLFKEVDGEGKPYYEVRLASVLGSEPSLDSEVTSKLKSYEFRGSPFQVTRGDYAPILQKVVEQLEKAKAYAANSHQGQMLAQYIESFTQGSIEAHKRGSRFWIQDKGPIVESYIGFIESYRDPFGSRGEFEGFVAVVNKAMSAKFERLVASAEQLLKELPWPPTFEKDKFLTPDFTSLDVLTFAGSGIPAGINIPNYDDLRQTEGFKNVSLGNVLAVAYATQREKLTFLEEDDKDLYILWKGPSFDVQVGLHELLGHGSGKLFVQDEKGAFNFDQETVINPETGEQIQSWYRSGETWDSKFSTIASSYEECRAESVGLYLCLHPQVLEIFGFEGADAEDVIYVNWLNMVRAGLLALEFYTPEAFNWRQAHMQARFVILRVLLEAGEGLVTITPTTGSDGRPDARVRLDRSKIRSVGKPALERFLRRLQVLKSTGDVAGGRALYEGYATVTDAPPECFLTLRDTVLLRKESRKLIVQPNTRLEGSDVQLLEYEASAAGLIRSFSERFPEDGPELEEILTQLATADARFWKGPSEAPSGQA", "notes": "aminopeptidase that cleaves specific dipeptides from the N terminus of relatively small peptides"}}, "key": {"[1]": {"test_system": "U937 macrophage-like cells on a monolayer of HUVECs", "assay": "Transmigration assay of U937 cells across a HUVEC monolayer (Transwell)", "type": "cell-based, human", "settings": "presence of PKC inhibitor vs DMSO", "protocol": "The upper inserts (5.0 μm pore size) of Chemotaxicells (Kurabo Industries, Ltd) were coated with 100 μg fibronectin (Sigma-Aldrich). HUVECs were seeded on the insert and cultured for 48 h to form an endothelial monolayer. […] The number of U937 cells that migrated into the lower wells was counted using the Counting chamber (ERMA Inc)."}, "RhoA": {"test_system": "RhoA", "assay": "Pull-down assay for GTP-bound active RhoA in HUVECs", "type": "cell-based, human", "settings": "presence of PKC inhibitor vs DMSO", "protocol": "These experiments were performed as described previously with some modifications ([70]). Briefly, total cell lysates were obtained using the RIPA lysis buffer (50 mmol/l Tris-HCl [pH 7.5], 150 mmol/l NaCl, 0.5% deoxycholate sodium, 0.1% SDS, 1% Nonidet P-40, and 100 mM PMSF). The samples were separated by SDS-PAGE and blotted on a polyvinylidene difluoride membrane. The membrane was sequentially incubated with primary Ab and horseradish peroxidase (HRP)-labeled secondary Ab, followed by treatment with HRP substrate (Luminata Forte, Millipore Corp). The target protein band was observed using the luminescent image analyzer LAS-4000 (Fujifilm Life Science). The pull-down assay was performed as described previously with some modifications ([71]). Briefly, the cell lysates were incubated with glutathione S-transferase-fused mDia Rho-binding domain and glutathione-sepharose beads (GE Healthcare) at 2 °C to collect active GTP-bound RhoA."}, "SGLT2": {"test_system": "SGLT2", "settings": "cited from earlier work", "excerpt": "DM patients have a high mortality rate, mainly due to DM-related heart and/or kidney failure ([35], [43]). Pathologically, heart dysfunction exacerbates kidney damage, while renal injury negatively affects cardiac function. […] To reduce diabetic complications in tissues and organs, particularly in the heart and kidney, great effort has been made to develop effective medicines and therapeutics for DM. Among these, much attention ..."}, "C3a receptor (C3aR)": {"target": "T1, C3a receptor (C3aR) (Homo sapiens, UniProt Q16581)", "T1 construct": "host or cells: HUVECs", "T1 sequence (Q16581 1-482)": "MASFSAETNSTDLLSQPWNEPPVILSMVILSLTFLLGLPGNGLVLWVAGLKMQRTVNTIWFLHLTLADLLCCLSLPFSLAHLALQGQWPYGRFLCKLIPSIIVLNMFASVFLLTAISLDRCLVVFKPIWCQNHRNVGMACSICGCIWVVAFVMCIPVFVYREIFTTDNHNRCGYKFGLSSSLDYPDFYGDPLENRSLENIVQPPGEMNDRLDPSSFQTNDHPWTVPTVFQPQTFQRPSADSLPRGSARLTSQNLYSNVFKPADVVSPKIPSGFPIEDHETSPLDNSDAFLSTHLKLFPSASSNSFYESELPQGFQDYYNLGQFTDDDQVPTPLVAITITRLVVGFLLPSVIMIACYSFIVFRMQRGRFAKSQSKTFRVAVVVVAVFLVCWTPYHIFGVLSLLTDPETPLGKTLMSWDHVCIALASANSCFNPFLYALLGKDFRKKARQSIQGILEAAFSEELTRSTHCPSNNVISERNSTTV", "assay": "Cell surface attachment of FITC-Peptide 2 on HUVECs through C3aR", "type": "binding", "settings": "C3aR-knockdown (siC3aR #2) vs scramble RNA-transfected HUVECs; 2 h at 4 °C", "protocol": "The expression level of C3a receptor 1 (C3aR) was evaluated by semiquantitative PCR. mRNA was extracted using TRIzol RNA isolation reagent (Thermo Fisher Scientific), and cDNA was synthesized using ReverTra Ace (Toyobo). PCR was performed using rTaq DNA polymerase (TaKaRa Bio Inc). The band densities of PCR products were quantified using the ImageJ software. The mRNA expression level of C3aR was adjusted to that of β-actin as an internal control. Primer sequences for the experiments were as follows: C3aR forward 5′-[…]-3′ and reverse 5′-[…]-3′; β-actin forward 5′-[…]-3′ and reverse 5′-[…]-3′. To silence C3aR expression in HUVECs, siRNA against C3aR (#1: 5′-[…]-3′, #2: 5′-[…]-3′) was transfected into the cells with RNAiMAX (Thermo Fisher Scientific), and the cells were cultured for 2 days.\nFITC-conjugated Peptide 2 was generated by Biologica Co. HUVECs, in which C3aR was or was not knocked down, were incubated with the indicated concentrations of FITC-Peptide 2 for 2 h at 4 °C. Subsequently, the cells were washed with PBS three times and labeled with tetramethylrhodamine-WGA (Thermo Fisher Scientific). Following fixation with 4% paraformaldehyde, the attached peptides on the cell surface were observed using a Leica SP8 microscope (Leica Microsystems)."}, "db/m mice": {"test_system": "db/m mice", "assay": "Peptide 2 or control peptide administration for 8 weeks in nondiabetic db/m mice", "type": "in vivo, mouse", "settings": "for Heart rate during echocardiography: db/m mice, isoflurane anesthesia, average ± SD, n= 7"}, "db/db mice [2]": {"test_system": "db/db mice", "settings": "mouse, in vivo, iv", "quoted_text": "We examined the in vivo cytotoxicity of Peptide 2 by intravenous injection of this peptide (0.5 μg/g body weight) into mice.\nFollowing euthanasia of the mice by cervical dislocation, they were perfused with PBS, and the heart and kidney were extracted. The extracted organs were snap-frozen in liquid nitrogen within a block of water-soluble medium (Surgipath FSC 22, Leica Biosystems) or fixed with 4% paraformaldehyde and subsequently embedded in paraffin blocks. Regarding the frozen samples, they were sectioned in 10 μm thick using a cryostat (Leica Biosystems), fixed with 4% paraformaldehyde on top of poly-L-lysine-coated slides, permeabilized with 0.1% Triton X-100, and blocked with 1% bovine serum albumin (BSA). Primary antibodies (Abs) (see below) were applied in the BSA blocking solution at 4 °C overnight, followed by 1 h incubation at room temperature with fluorescent dye-labeled secondary Abs. Paraffin sections, 4 μm thick, were stained with H-E, WGA (1:500 dilution) (Thermo Fisher Scientific) or Sirius red (1:1000 dilution) (Fujifilm Wako Pure Chemical Corporation) using standard techniques. Confocal images were taken using a Leica SP8 microscope (Leica Microsystems). […] As described previously ([68]), at least three random fields were selected from the four sections in each heart to quantify the extent of fibrotic or immunopositive area using ImageJ software."}, "[3]": {"test_system": "AngII-stimulated hypertensive mice", "settings": "AngII-stimulated hypertensive vs normotensive mice; cited from earlier work"}, "db/db mice [4]": {"test_system": "db/db mice"}, "[5]": {"settings": "nondiabetic db/m mice, 8-week administration"}, "[6]": {"settings": "DPPIII 10 μg/g iv, after 8 weeks"}, "[7]": {"settings": "DPPIII 10 μg/g iv, after 8 weeks, vs PBS"}}, "note": "Where no end group is shown, it is not given here."}
{"molecule": "Cn1c2ccccc2c2c3c(c4c5ccccc5n(CCC#N)c4c21)CNC3=O", "note": "[PKC inhibitor, Gö6976]", "values": [{"measurement": "Effect on Peptide-2-induced U937 transendothelial migration", "setting": "[1]", "value": "inhibited in the presence of PKC inhibitor"}, {"measurement": "Effect on Peptide-2-induced RhoA activation", "setting": "RhoA", "value": "inhibited in the presence of PKC inhibitor"}]}
{"molecule": "Cc1ccc([C@@H]2O[C@H](CO)[C@@H](O)[C@H](O)[C@H]2O)cc1Cc1ccc(-c2ccc(F)cc2)s1", "note": "[canagliflozin]", "values": [{"measurement": "Heart failure and DKD in DM patients", "setting": "SGLT2", "value": "improves heart failure and DKD"}]}
{"molecule": "FITC-Peptide 2: fluorescein isothiocyanate (FITC)-conjugated Peptide 2 (RLLWENGNL; also: FITC-conjugated, position not given here)", "values": [{"measurement": "FITC-Peptide 2 attachment on the cells (fluorescence microscopy)", "setting": "C3a receptor (C3aR)", "value": "significantly reduced in C3aR-knockdown HUVECs"}]}
{"molecule": "IAFSQYLQK [control peptide, reference compound]", "values": [{"measurement": "Heart rate during echocardiography", "setting": "db/m mice; week 0", "value": "410 ± 30"}, {"measurement": "Heart rate during echocardiography", "setting": "db/m mice; week 4", "value": "423 ± 32"}, {"measurement": "Heart rate during echocardiography", "setting": "db/m mice; week 8", "value": "407 ± 30"}]}
{"molecule": "RLLWENGNL [Peptide 2]", "values": [{"measurement": "Heart rate during echocardiography", "setting": "db/m mice; week 0", "value": "417 ± 32"}, {"measurement": "Heart rate during echocardiography", "setting": "db/m mice; week 4", "value": "402 ± 41"}, {"measurement": "Heart rate during echocardiography", "setting": "db/m mice; week 8", "value": "414 ± 42"}, {"measurement": "Body weight, blood glucose level, or hemodynamics", "setting": "db/m mice; [5]", "value": "did not affect"}, {"measurement": "Deteriorative effects on the organs (heart and kidney)", "setting": "db/m mice; [5]", "value": "not observed in db/m mice"}, {"measurement": "Desmin deposition and microvasculature disruption in the glomeruli", "setting": "db/db mice [2]", "value": "highly enhanced"}]}
{"molecule": "B1", "values": [{"measurement": "Blood-pressure-lowering effect", "setting": "[3]", "value": "BP-lowering effects were observed specifically in AngII-stimulated hypertensive mice, but not in normotensive mice"}, {"measurement": "Body weight and blood glucose level (increase during the experimental period)", "setting": "db/db mice [4]; DPPIII 10 μg/g body weight iv three times weekly for 8 weeks, vs PBS", "value": "unaffected by DPPIII treatment"}, {"measurement": "Left ventricular dimensions and systolic functions (echocardiography)", "setting": "db/db mice [4]; DPPIII 10 μg/g iv, 8 weeks", "value": "not significantly changed"}, {"measurement": "Urine albumin excretion (albuminuria)", "setting": "db/db mice [4]; DPPIII 10 μg/g iv, 8 weeks, 24 h urine, SDS-PAGE, Coomassie staining", "value": "the increase was blocked by DPPIII treatment"}, {"measurement": "Cardiac diastolic functions (pulse-wave and tissue Doppler echocardiography)", "setting": "db/db mice [4]; DPPIII 10 μg/g iv, 8 weeks, vs PBS", "value": "improved the impaired diastolic functions"}, {"measurement": "Desmin deposition in the glomeruli", "setting": "db/db mice [4]; [6]", "value": "almost totally reversed by DPPIII treatment"}, {"measurement": "Disruption of glomerular microvasculature (CD31 staining)", "setting": "db/db mice [4]; [6]", "value": "recovered"}, {"measurement": "Morphology and size of cardiomyocytes (H-E and WGA staining)", "setting": "db/db mice [4]; [6]", "value": "unchanged by DPPIII treatment"}, {"measurement": "Plasma cholesterol or triglyceride levels", "setting": "db/db mice [4]; [6]", "value": "no effects"}, {"measurement": "Podocyte foot process damage (electron microscopy)", "setting": "db/db mice [4]; [6]", "value": "ameliorated by DPPIII treatment"}, {"measurement": "Cardiac fibrosis (Sirius red staining)", "setting": "db/db mice [4]; [7]", "value": "reduced by DPPIII treatment"}, {"measurement": "Infiltration of CD68-positive inflammatory cells in the heart", "setting": "db/db mice [4]; [7]", "value": "reversed"}, {"measurement": "Plasma concentration of Peptide 2 (SRM)", "setting": "db/db mice [4]; after 8-week DPPIII administration, vs PBS-infused db/db mice", "value": "clearly reduced"}]}
